Laboratory results: IntAct's records for PubMed 18971339

B1: Interferon-induced, double-stranded RNA-activated protein kinase (Homo sapiens), P19525 (parent)
chain: MAGDLSAGFFMEELNTYRQKQGVVLKYQELPNSGPPHDRRFTFQVIIDGREFPEGEGRSKKEAKNAAAKLAVEILNKEKKAVSPLLLTTTNSSEGLSMGNYIGLINRIAQKKRLTVNYEQCASGVHGPEGFHYKCKMGQKEYSIGTGSTKQEAKQLAAKLAYLQILSEETSVKSDYLSSGSFATTCESQSNSLVTSTLASESSSEGDFSADTSEINSNSDSLNSSSLLMNGLRNNQRKAKRSLAPRFDLPDMKETKYTVDKRFGMDFKEIELIGSGGFGQVFKAKHRIDGKTYVIKRVKYNNEKAEREVKALAKLDHVNIVHYNGCWDGFDYDPETSDDSLESSDYDPENSKNSSRSKTKCLFIQMEFCDKGTLEQWIEKRRGEKLDKVLALELFEQITKGVDYIHSKKLIHRDLKPSNIFLVDTKQVKIGDFGLVTSLKNDGKRTRSKGTLRYMSPEQISSQDYGKEVDLYALGLILAELLHVCDTAFETSKFFTDLRDGIISDIFDKKEKTLLQKLLSKKPEDRPNTSEILRTLTVWKKSPEKNERHTC
partner: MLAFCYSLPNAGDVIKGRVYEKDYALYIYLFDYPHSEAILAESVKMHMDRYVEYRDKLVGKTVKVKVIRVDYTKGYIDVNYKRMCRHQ

Variants of: B1
Conditions: with pg041_vaccc OPG041, P20639
With MAGDLSAGFFMEELNTYRQKQGVVLKYQELPNSGPPHDRRFTFQVIIDGREFPEGEGRSKKEAKNAAAKLAVEILNKEKKAVSPLLLTTTNSSEGLSMGNYIGLINRIAQKKRLTVNYEQCASGVHGPEGFHYKCKMGQKEYSIGTGSTKQEAKQLAAKLAYLQILSEETSVKSDYLSSGSFATTCESQSNSLVTSTLASESSSEGDFSADTSEINSNSDSLNSSSLLMNGLRNNQRKAKRSLAPRFDLPDMKETKYTVDKRFGMDFKEIELIGSGGFGQVFKAKHRIDGKTYVIKRVKYNNEKAEREVKALAKLDHVNIVHYNGCWDGFDYDPETSDDSLESSDYDPENSKNSSRSKTKCLFIQMEFCDKGTLEQWIEKRRGEKLDKVLALELFEQITKGVDYIHSKKLIHRDLKPSNIFLVDTKQVKIGDFGLVTSLKNDGKRTRSKGTLRYMSPEQISSQDYGKEVDLYALGLILAELLHVCVTAFETSKFFTDLRDGIISDIFDKKEKTLLQKLLSKKPEDRPNTSEILRTLTVWKKSPEKNERHTC [D486V] the “effect of a mutation on the interaction” value was “decreasing interaction strength”.
